Target: 220 kDa ankyrin-B-GFP
Experiment: proximity ligation

Q: “NaV1.2 II-III loop-3xHA (wild type) (from UniProt Q99250 991-1211) (domain or fragment)” was tested. Which PLA signal did it give?
A: 11.6 a.u.

Reference: PMC11097922
